From patent US20200062804A1 (ADRX, published 2020)
“And” between values parts separate entries of the source, which are not always exact repeats. Equal values may be shown once. Non-standard residues stand in square brackets, D forms with d. No end group written: not given here. Chg = N[C@H](C(=O)O)C1CCCCC1; Phg = N[C@H](C(=O)O)c1ccccc1

T1: Nat1 (LTIITLE) (also: TFA salt)
T1 peptide: LTIITLE


Molecular target: T1, Nat1 (LTIITLE)
Assay: cell-based or functional assay

Binder	IC50, Thiofiavin T aggregation assay
WTIMLWH	525 nM
IRIYRYK	60 nM
LTRILTH	7370 nM
WTIKLTH	720 nM
TYIRYLR	412 nM
LTIRTLH	537 nM
FFRLYLR	13400 nM
[dQ][dV][dR][dY][dH][dK][dN] [qvryhkn]	5700 nM
LTRITLE	1680 nM
[Chg]R[Chg]RRYR [Chg-Arg-Chg-Arg-Arg-Tyr-Arg]	67 nM
WTIRYYH	473 nM and 214 nM
ALIKYHR	629 nM
[dW][dW][dR][dF][dH][dW][dR] [wwrfhwr]	472 nM
IRVYKYS	480 nM
ILRLYFR	8970 nM
[dF][dW][dR][dW][dH][dA][dA] [fwrwhaa]	458 nM
WTKITLH	427 nM
WTIRTWH	784 nM
WTRIYYH	420 nM
Ac-IRIRRYR-NH2 [Ac-IRIRRYR-NH2]	69 nM
LFIFYHR	476 nM
[dR][dQ][dW][dY][dR][dW][dQ] [rqwyrwq]	2720 nM

Binder	IC50, Thiofiavin T aggregation assay
LLIAYHR	466 nM
FRLYIH	16400 nM
[dQ][dW][dR][dW][dR][dH][dR] [qwrwrhr]	3140 nM
[dF][dA][dR][dA][dH][dR][dR] [farahrr]	906 nM
[dK][dL][dK][dW][dA][dY] [klkway]	12600 nM
TRIRFYR	64 nM
[dI][dL][dK][dW][dL][dW] [ilkwlw]	1340 nM
LTRILWH	16200 nM
LLAKYHR	1730 nM
[dQ][dL][dK][dW][dL][dH] [qlkwlh]	716 nM
[dR][dF][dH][dR][dH][dH][dR] [rfhrhhr]	30900 nM
[dS][dH][dW][dR][dH][dH][dR] [shwrhhr]	2270 nM
IHIEIK	723 nM
IRIRAAR	451 nM
IQIYRYK	444 nM
IFVYHH	703 nM
[dR][dL][dK][dW][dR][dW] [rlkwrw]	702 nM
LSIRQH	945 nM
IRFRRYR	496 nM
[dK][dL][dK][dW][dQ][dW] [klkwqw]	7310 nM
YYIRYYK	494 nM
YYIRTYH	1600 nM

Binder	IC50, Thiofiavin T aggregation assay
TRIYRVK	3740 nM
[dR][dW][dR][dY][dL][dR][dR] [rwrylrr]	49 nM
LHIEHR	657 nM
[dR][dF][dH][dY][dF][dR][dK] [rfhyfrk]	51 nM
LTIQLWH	481 nM
[dK][dL][dK][dW][dL][dW] [klkwlw]	1060 nM
WRIRRYR	514 nM
AYYYRHR	2120 nM
LFIYYQR	440 nM
TFVFRHR	20300 nM
TYVYRRR	3660 nM
[Phg]R[Phg]RRYR [Phg-Arg-Phg-Arg-Arg-Tyr-Arg]	5950 nM
TYIYRQR	5170 nM
YTYMLWK	824 nM
IRARRYR	1250 nM
[dQ][dF][dH][dY][dK][dR][dR] [qfhylcrr]	23900 nM
IWIRRWR	1900 nM
LTIMLWH	425 nM
[dR][dM][dW][dR][dH][dH][dR] [rmwrhhr]	13200 nM
WTRITLE	1340 nM
